Reference: patent US20180051033, “INHIBITORS OF LATE SV40 FACTOR (LSF) AS CANCER CHEMOTHERAPEUTICS” (TRUSTEES OF BOSTON UNIVERSITY, published 2018)

Target: T1, LSF (TFCP2) (Homo sapiens, UniProt Q12800 SEQ:1-502)
T1 sequence: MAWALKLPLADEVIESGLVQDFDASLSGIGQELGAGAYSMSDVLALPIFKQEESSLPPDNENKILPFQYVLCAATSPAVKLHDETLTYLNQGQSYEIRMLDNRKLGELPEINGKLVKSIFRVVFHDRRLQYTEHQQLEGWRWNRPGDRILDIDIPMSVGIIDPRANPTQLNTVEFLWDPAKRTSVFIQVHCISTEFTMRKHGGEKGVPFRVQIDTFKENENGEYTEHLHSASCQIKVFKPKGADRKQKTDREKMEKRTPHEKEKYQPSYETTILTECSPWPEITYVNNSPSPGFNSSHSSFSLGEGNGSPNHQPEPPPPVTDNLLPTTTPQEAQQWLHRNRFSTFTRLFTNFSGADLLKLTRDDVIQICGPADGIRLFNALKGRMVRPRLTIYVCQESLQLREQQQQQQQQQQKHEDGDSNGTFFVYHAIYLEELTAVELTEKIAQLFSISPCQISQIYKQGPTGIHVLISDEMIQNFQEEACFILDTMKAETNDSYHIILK
Test: EMSA; 40 mM KCl, 15 mM HEPES pH 7.9, 1 mM EDTA, 0.5 mM DTT, 5% glycerol, poly d(I-C), 30 C; FQI1 enhances binding at low and inhibits at higher concentration
Settings: chain copies: 4 stated (tetrameric on DNA); label: 32P (radiolabelled)
Experimental: LSF was translated in vitro as previously described¹⁶ for use in EMSAs. Protein was preincubated with inhibitor or DMSO and then incubated with 0.5 μg poly d(I-C) for 15 min at 4° C. in 40 mM KCl, 15 mM HEPES pH 7.9, 1 mM EDTA, 0.5 mM DTT, 5% glycerol. Finally, radiolabelled double-stranded DNA ([…]—SEQ ID NO: 5- and its complement) were added for a 30-min incubation at 30° C. Results were visualized using a PhosphorImager and quantified using ImageQuant software.

B1: LSF EMSA site (dsDNA)
DNA 1: TGGCTGGTTATGGCTGGTCAGACTAG
DNA 2: CTAGTCTGACCAGCCATAACCAGCCA
  binding result: binds
